According to the Human Domainome abundance scans (Beltran et al. 2025):
± gives the uncertainty stated by the source.

B1: Friend leukemia integration 1 transcription factor, residues 116 to 197; numbered along this chain, Q01543 (parent)
chain: NMTTNERRVIVPADPTLWTQEHVRQWLEWAIKEYSLMEIDTSFFQNMDGKELCKMNKEDFLRATTLYNTEVLLSHLSYLRES

Variants of: B1
Experiment: abundance fitness (aPCA) (normalised: wild type 0, dead -1); higher = more abundant; growth selection in yeast, the domain comes from the species named
Settings: Homo sapiens

Abundance fitness of substitutions, site by site:
K32: T -0.001 ± 0.083, V -0.157 ± 0.064, W -0.159 ± 0.057
E33: D -0.117 ± 0.27, F -0.803 ± 0.37, G -0.8 ± 0.14, H -0.204 ± 0.23, I -0.437 ± 0.4, K -0.021 ± 0.11, L -0.981 ± 0.13, N -0.354 ± 0.25, P -0.973 ± 0.19, Q -0.055 ± 0.1, R -0.06 ± 0.058, S -0.238 ± 0.073, T -0.243 ± 0.089, V -0.435 ± 0.12, W -0.382 ± 0.08, Y -0.278 ± 0.31
Y34: A -0.274 ± 0.09, E -0.181 ± 0.093, F 0.109 ± 0.36, G -0.215 ± 0.066, H -0.106 ± 0.2, K -0.032 ± 0.11, L -0.227 ± 0.061, M -0.185 ± 0.1, N 0.245 ± 0.24, P -0.897 ± 0.28, Q -0.346 ± 0.13, R -0.207 ± 0.051, S -0.108 ± 0.068, T -0.684 ± 0.17, V -0.978 ± 0.14, W 0.046 ± 0.077
S35: A -0.076 ± 0.063, C -0.183 ± 0.18, D -0.02 ± 0.16, E -0.101 ± 0.08, F -0.33 ± 0.15, G 0.073 ± 0.07, H -0.132 ± 0.19, L -0.335 ± 0.069, M -0.271 ± 0.073, N 0.011 ± 0.24, P -0.228 ± 0.079, Q -0.105 ± 0.12, R -0.156 ± 0.066, T -0.021 ± 0.068, V -0.405 ± 0.08, W -0.509 ± 0.14
L36: A -0.83 ± 0.14, C -0.769 ± 0.28, D -0.521 ± 0.19, E -0.605 ± 0.14, F -0.195 ± 0.17, G -0.467 ± 0.086, H -0.521 ± 0.37, I 0.08 ± 0.17, K -0.839 ± 0.36, N -0.742 ± 0.28, P -0.573 ± 0.12, Q -0.603 ± 0.18, R -1.04 ± 0.23, S -0.566 ± 0.12, T -0.51 ± 0.12, V -0.21 ± 0.082
M37: A 0.003 ± 0.068, C -0.317 ± 0.4, D 0.021 ± 0.22, E -0.115 ± 0.1, F 0.187 ± 0.1, G -0.02 ± 0.096, K 0.008 ± 0.093, L -0.001 ± 0.065, N -0.44 ± 0.44, P -0.076 ± 0.099, Q -0.242 ± 0.12, R -0.055 ± 0.057, S -0.078 ± 0.092, T 0.055 ± 0.079, V 0.066 ± 0.076, W -0.13 ± 0.062, Y 0.059 ± 0.13
E38: C -0.126 ± 0.16, F -0.329 ± 0.18, G -0.131 ± 0.11, H -0.231 ± 0.15, I -0.32 ± 0.052, K -0.087 ± 0.17, L -0.04 ± 0.061, M -0.09 ± 0.12, N -0.397 ± 0.23, Q -0.215 ± 0.11, R -0.203 ± 0.061, S -0.068 ± 0.073, T -0.145 ± 0.09, V -0.231 ± 0.096, W -0.349 ± 0.11
I39: A -0.259 ± 0.079, C -0.102 ± 0.12, E -0.261 ± 0.13, F -0.112 ± 0.26, G -0.85 ± 0.13, K -1.04 ± 0.48, L -0.017 ± 0.06, M 0.027 ± 0.07, P -0.654 ± 0.14, Q -0.743 ± 0.18, R -1 ± 0.2, T -0.159 ± 0.092, V 0.019 ± 0.072, W -0.57 ± 0.091
D40: A -0.486 ± 0.1, E -0.043 ± 0.11, G -0.631 ± 0.076, I -0.576 ± 0.36, K -0.276 ± 0.18, L -0.921 ± 0.12, M -0.67 ± 0.2, N 0.162 ± 0.14, P -0.162 ± 0.11, Q -0.252 ± 0.17, R -0.469 ± 0.084, S -0.217 ± 0.092, T -0.268 ± 0.12, V -0.892 ± 0.16, W -0.887 ± 0.21, Y -0.686 ± 0.26
T41: A -0.035 ± 0.094, C 0.015 ± 0.15, D 0.063 ± 0.21, E -0.08 ± 0.11, F 0.302 ± 0.19, G -0.129 ± 0.097, H -0.14 ± 0.17, K 0.011 ± 0.093, L 0.051 ± 0.063, N -0.103 ± 0.17, P 0.003 ± 0.1, Q -0.076 ± 0.11, R -0.079 ± 0.062, V -0.09 ± 0.1, Y 0.051 ± 0.12
S42: A -0.037 ± 0.063, D 0.084 ± 0.18, E -0.352 ± 0.12, G -0.062 ± 0.065, H -0.054 ± 0.26, K -0.223 ± 0.11, L -0.134 ± 0.054, M -0.11 ± 0.054, N 0.291 ± 0.33, P -0.094 ± 0.073, R -0.115 ± 0.068, T 0.023 ± 0.083, V -0.07 ± 0.08, W -0.294 ± 0.059, Y -0.264 ± 0.14
F43: A -0.063 ± 0.077, C -0.35 ± 0.2, D -0.175 ± 0.26, G -0.204 ± 0.086, H -0.167 ± 0.17, I -0.164 ± 0.13, K -0.118 ± 0.12, L 0.077 ± 0.062, M -0.019 ± 0.091, P -0.052 ± 0.066, Q 0.004 ± 0.074, R -0.091 ± 0.059, S -0.037 ± 0.059, T -0.11 ± 0.1, V -0.118 ± 0.072, W 0.002 ± 0.073, Y -0.013 ± 0.16
F44: A -0.095 ± 0.042, C -0.117 ± 0.06, D -0.914 ± 0.2, E -0.991 ± 0.14, G -0.637 ± 0.045, H -0.884 ± 0.18, I -0.278 ± 0.083, L -0.227 ± 0.04, M -0.331 ± 0.071, N -0.875 ± 0.23, P -0.744 ± 0.11, Q -0.96 ± 0.18, R -1.05 ± 0.1, S -0.499 ± 0.059, T -0.453 ± 0.067, V -0.21 ± 0.039, W -0.13 ± 0.044
Q45: A 0.028 ± 0.067, C -0.081 ± 0.12, D -0.295 ± 0.18, E 0.045 ± 0.081, F -0.102 ± 0.16, G -0.04 ± 0.07, H -0.072 ± 0.15, K -0.048 ± 0.096, L -0.009 ± 0.049, M 0.026 ± 0.074, P -0.381 ± 0.1, R 0.091 ± 0.049, S -0.003 ± 0.084, T -0.068 ± 0.08, V 0.062 ± 0.057, W 0.056 ± 0.065, Y 0 ± 0.15
N46: A -0.077 ± 0.33, C -0.153 ± 0.11, F 0.045 ± 0.14, G -0.089 ± 0.24, H 0.297 ± 0.25, I -0.397 ± 0.13, K 0.033 ± 0.14, L -0.175 ± 0.085, M -0.135 ± 0.073, P -0.205 ± 0.099, R 0.066 ± 0.064, S -0.087 ± 0.097, T 0.071 ± 0.099, V -0.34 ± 0.23, W -0.114 ± 0.092, Y -0.09 ± 0.12
M47: A -0.162 ± 0.068, E -1.08 ± 0.28, F -0.293 ± 0.19, G -0.848 ± 0.19, H -0.248 ± 0.23, I 0.077 ± 0.15, K -0.161 ± 0.12, L -0.004 ± 0.063, N -0.285 ± 0.31, P -0.706 ± 0.19, R -0.239 ± 0.048, T -0.344 ± 0.061, V -0.093 ± 0.072, W -0.417 ± 0.1, Y 0.092 ± 0.17
D48: A -0.118 ± 0.084, C -0.388 ± 0.17, E -0.222 ± 0.11, G -0.114 ± 0.094, H -0.366 ± 0.23, I -0.391 ± 0.27, K -0.227 ± 0.12, M -0.464 ± 0.12, N -0.201 ± 0.25, P -0.295 ± 0.094, Q -0.205 ± 0.1, R -0.305 ± 0.082, S -0.013 ± 0.074, T -0.04 ± 0.11, V 0.031 ± 0.08, W -0.82 ± 0.21, Y -0.358 ± 0.23
G49: A -1.01 ± 0.15, I -0.506 ± 0.28, K -0.994 ± 0.42, L -0.579 ± 0.093, M -0.965 ± 0.38, Q -0.977 ± 0.49, R -0.889 ± 0.13, S -0.943 ± 0.16, T -0.919 ± 0.27, V -0.755 ± 0.14, W -0.777 ± 0.25
K50: C -0.281 ± 0.23, D -0.093 ± 0.14, E 0.058 ± 0.1, F -0.064 ± 0.053, G -0.059 ± 0.086, H 0.031 ± 0.067, I -0.113 ± 0.18, L -0.12 ± 0.072, M -0.087 ± 0.12, N 0.068 ± 0.15, P 0.013 ± 0.096, Q 0.013 ± 0.1, S -0.032 ± 0.077, T 0.212 ± 0.079, V -0.159 ± 0.1, W -0.239 ± 0.078, Y 0.249 ± 0.23
E51: C -0.219 ± 0.18, D -0.332 ± 0.28, F -0.243 ± 0.22, G -0.058 ± 0.068, H 0.068 ± 0.12, I -0.259 ± 0.23, K -0.01 ± 0.094, L -0.135 ± 0.051, M -0.1 ± 0.11, P -0.766 ± 0.17, Q 0.03 ± 0.08, R -0.084 ± 0.065, T 0.034 ± 0.082, V -0.127 ± 0.078, W -0.477 ± 0.08, Y -0.679 ± 0.33
L52: A -0.602 ± 0.26, C -0.692 ± 0.38, E -0.976 ± 0.29, F -0.072 ± 0.12, G -0.915 ± 0.15, I -0.608 ± 0.35, M -0.277 ± 0.17, P -0.627 ± 0.13, R -1.03 ± 0.16, S -0.991 ± 0.18, T -0.928 ± 0.29, V -0.192 ± 0.071, W -0.943 ± 0.21
C53: A -0.222 ± 0.096, E -0.409 ± 0.13, F 0.031 ± 0.13, G -0.142 ± 0.077, H -0.324 ± 0.31, K -0.553 ± 0.16, L 0.153 ± 0.047, M -0.134 ± 0.092, N -0.197 ± 0.12, P -0.905 ± 0.17, Q -0.099 ± 0.092, R -0.72 ± 0.11, S -0.213 ± 0.073, T -0.048 ± 0.088, V -0.017 ± 0.07, W -0.463 ± 0.14, Y -0.377 ± 0.23
K54: D 0.098 ± 0.19, E 0.1 ± 0.094
